Assay [1] concerns the target SARS-CoV-2 S receptor-binding domain (RBD), biotinylated (SARS-CoV-2, UniProt P0DTC2 330-531). Description: BLI.
Assay [2] concerns the target biotinylated SARS-CoV RBD (SARS-CoV, UniProt P59594, biotin). As to the kind of experiment: BLI. In general terms: In BLI a coated tip is dipped into the sample, and binding shifts an interference pattern.

The record followed here is PMC8646660 (2021).

Broadly, the koff is a measure of how fast the partners let go of each other.

B1: scFD20 (single-chain variable fragment of FD20) (scFv, V domains shown)
VH: QVQLQQSGAEVKKPGSSVKVSCKASGGTFSSYAFSWVRQAPGQGLEWMGRIIPILGIANYAQKFQGRVTITADISTSTAYMALSSLRSEDTAVYYCAKVEVNIGMDDYYYYYGMDVWGQGTTVTVSS
VL: not shown
Regarding B1, the koff turned out to be 0.000664 s⁻¹ in assay [1] and 0.00054 s⁻¹ in assay [2].
